Laboratory results reported in article PMC2949527 (Journal of molecular biology, 2010).

Molecular target: the molecule itself
Assay: NMR solution structure

B1: RFX5(25-90), oligomerization domain of RFX5 (domain or fragment, UniProt P48382 25-90, looked up)
chain: GEPTTLLQRLRGTISKAVQNKVEGILQDVQKFSDNDKLYLYLQLPSGPTTGDKSSEPSTLSNEEYM
- stoichiometry N: 2
